Reference: publication PMC4500542 (Cell reports, 2015)
Read-outs that look alike come from different tables or passages of the source.

B1: MBP-EBOV NP 1-450 (oligomeric, RNA-bound) (domain or fragment)
chain: MDSRPQKIWMAPSLTESDMDYHKILTAGLSVQQGIVRQRVIPVYQVNNLEEICQLIIQAFEAGVDFQESADSFLLMLCLHHAYQGDYKLFLESGAVKYLEGHGFRFEVKKRDGVKRLEELLPAVSSGKNIKRTLAAMPEEETTEANAGQFLSFASLFLPKLVVGEKACLEKVQRQIQVHAEQGLIQYPTAWQSVGHMMVIFRLMRTNFLIKFLLIHQGMHMVAGHDANDAVISNSVAQARFSGLLIVKTVLDHILQKTERGVRLHPLARTAKVKNEVNSFKAALSSLAKHGEYAPFARLLNLSGVNNLEHGLFPQLSAIALGVATAHGSTLAGVNVGEQYQQLREAATEAEKQLQQYAESRELDHLGLDDQEKKILMNFHQKKNEISFQQTNAMVTLRKERLAKLTEAITAASLPKTSGHYDDDDDIPFPGPINDDDNPGHQDDDPTDSQ
B2: EBOV NP 1-450 released by TEV protease from the cleavable fusion (RNA-free) (domain or fragment)
chain: MDSRPQKIWMAPSLTESDMDYHKILTAGLSVQQGIVRQRVIPVYQVNNLEEICQLIIQAFEAGVDFQESADSFLLMLCLHHAYQGDYKLFLESGAVKYLEGHGFRFEVKKRDGVKRLEELLPAVSSGKNIKRTLAAMPEEETTEANAGQFLSFASLFLPKLVVGEKACLEKVQRQIQVHAEQGLIQYPTAWQSVGHMMVIFRLMRTNFLIKFLLIHQGMHMVAGHDANDAVISNSVAQARFSGLLIVKTVLDHILQKTERGVRLHPLARTAKVKNEVNSFKAALSSLAKHGEYAPFARLLNLSGVNNLEHGLFPQLSAIALGVATAHGSTLAGVNVGEQYQQLREAATEAEKQLQQYAESRELDHLGLDDQEKKILMNFHQKKNEISFQQTNAMVTLRKERLAKLTEAITAASLPKTSGHYDDDDDIPFPGPINDDDNPGHQDDDPTDSQ
B3: EBOV NP 1-450 (oligomeric, RNA-bound, purified directly from E. coli) (domain or fragment)
chain: MDSRPQKIWMAPSLTESDMDYHKILTAGLSVQQGIVRQRVIPVYQVNNLEEICQLIIQAFEAGVDFQESADSFLLMLCLHHAYQGDYKLFLESGAVKYLEGHGFRFEVKKRDGVKRLEELLPAVSSGKNIKRTLAAMPEEETTEANAGQFLSFASLFLPKLVVGEKACLEKVQRQIQVHAEQGLIQYPTAWQSVGHMMVIFRLMRTNFLIKFLLIHQGMHMVAGHDANDAVISNSVAQARFSGLLIVKTVLDHILQKTERGVRLHPLARTAKVKNEVNSFKAALSSLAKHGEYAPFARLLNLSGVNNLEHGLFPQLSAIALGVATAHGSTLAGVNVGEQYQQLREAATEAEKQLQQYAESRELDHLGLDDQEKKILMNFHQKKNEISFQQTNAMVTLRKERLAKLTEAITAASLPKTSGHYDDDDDIPFPGPINDDDNPGHQDDDPTDSQ
B4: EBOV NP 1-450 (co-expressed with His-VP35 1-80) (domain or fragment)
chain: MDSRPQKIWMAPSLTESDMDYHKILTAGLSVQQGIVRQRVIPVYQVNNLEEICQLIIQAFEAGVDFQESADSFLLMLCLHHAYQGDYKLFLESGAVKYLEGHGFRFEVKKRDGVKRLEELLPAVSSGKNIKRTLAAMPEEETTEANAGQFLSFASLFLPKLVVGEKACLEKVQRQIQVHAEQGLIQYPTAWQSVGHMMVIFRLMRTNFLIKFLLIHQGMHMVAGHDANDAVISNSVAQARFSGLLIVKTVLDHILQKTERGVRLHPLARTAKVKNEVNSFKAALSSLAKHGEYAPFARLLNLSGVNNLEHGLFPQLSAIALGVATAHGSTLAGVNVGEQYQQLREAATEAEKQLQQYAESRELDHLGLDDQEKKILMNFHQKKNEISFQQTNAMVTLRKERLAKLTEAITAASLPKTSGHYDDDDDIPFPGPINDDDNPGHQDDDPTDSQ
B5: MBP-EBOV NP 19-389 (domain or fragment)
chain: MDYHKILTAGLSVQQGIVRQRVIPVYQVNNLEEICQLIIQAFEAGVDFQESADSFLLMLCLHHAYQGDYKLFLESGAVKYLEGHGFRFEVKKRDGVKRLEELLPAVSSGKNIKRTLAAMPEEETTEANAGQFLSFASLFLPKLVVGEKACLEKVQRQIQVHAEQGLIQYPTAWQSVGHMMVIFRLMRTNFLIKFLLIHQGMHMVAGHDANDAVISNSVAQARFSGLLIVKTVLDHILQKTERGVRLHPLARTAKVKNEVNSFKAALSSLAKHGEYAPFARLLNLSGVNNLEHGLFPQLSAIALGVATAHGSTLAGVNVGEQYQQLREAATEAEKQLQQYAESRELDHLGLDDQEKKILMNFHQKKNEISFQ
B6: MBP-EBOV NP 1-739 (oligomeric, RNA-bound) (natural protein)
chain: MDSRPQKIWMAPSLTESDMDYHKILTAGLSVQQGIVRQRVIPVYQVNNLEEICQLIIQAFEAGVDFQESADSFLLMLCLHHAYQGDYKLFLESGAVKYLEGHGFRFEVKKRDGVKRLEELLPAVSSGKNIKRTLAAMPEEETTEANAGQFLSFASLFLPKLVVGEKACLEKVQRQIQVHAEQGLIQYPTAWQSVGHMMVIFRLMRTNFLIKFLLIHQGMHMVAGHDANDAVISNSVAQARFSGLLIVKTVLDHILQKTERGVRLHPLARTAKVKNEVNSFKAALSSLAKHGEYAPFARLLNLSGVNNLEHGLFPQLSAIALGVATAHGSTLAGVNVGEQYQQLREAATEAEKQLQQYAESRELDHLGLDDQEKKILMNFHQKKNEISFQQTNAMVTLRKERLAKLTEAITAASLPKTSGHYDDDDDIPFPGPINDDDNPGHQDDDPTDSQDTTIPDVVVDPDDGSYGEYQSYSENGMNAPDDLVLFDLDEDDEDTKPVPNRSTKGGQQKNSQKGQHIEGRQTQSRPIQNVPGPHRTIHHASAPLTDNDRRNEPSGSTSPRMLTPINEEADPLDDADDETSSLPPLESDDEEQDRDGTSNRTPTVAPPAPVYRDHSEKKELPQDEQQDQDHTQEARNQDSDNTQSEHSFEEMYRHILRSQGPFDAVLYYHMMKDEPVVFSTSDGKEYTYPDSLEEEYPPWLTEKEAMNEENRFVTLDGQQFYWPVMNHKNKFMAILQHHQ

Tests used:
[1] = target: EBOV NP° core domain (NP 34-367) (Ebola virus (EBOV, formerly Zaire ebolavirus)) (UniProt P18272); assay: ITC
SEC-MALS [2] = target: the molecule itself; assay: SEC-MALS
SEC-MALS [3] = target: the molecule itself; assay: SEC-MALS; remark: listed apart in the source

Molecule | binding result (SEC-MALS [2]) | also measured
EBOV VP35 1-80 peptide (purified, wild type) (from UniProt Q05127 1-80) (domain or fragment) |  | Kd [1]: 1.1 nM
B1 | binds | 
B2 | binds | 
B3 | binds | 
B4 | binds | 
B5 | binds | 
B6 |  | binding result (SEC-MALS [3]): binds
